Article doi:10.1101/870667
Where two headings read alike, the source gives them in different places.

Key:
[1] = target: MLL1 core complex (MWRAD2 holo-complex) (human) (UniProt Q03164); assay: AUC
[2] = target: MLL1 core complex (MWRAD2 holo-complex) (human) (UniProt Q03164); assay: AUC; remark: listed apart in the source

stoichiometry N [1]: 2
stoichiometry N [2]: 18
Substance: MLL1 core complex (MWRAD2 holo-complex) (from UniProt Q03164;P61964;Q15291;Q9UBL3-3;Q9C005)
